System: Escherichia coli TOP10
Test: shrunken log2 fold change of peptide-encoding DNA abundance (4.5 h post-induction vs induction); higher = less antimicrobial activity (less host growth inhibition)
Conditions: time post-induction: 4.5 h; library: site-saturation at positions 5, 18, 19, 20
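Note: peptides expressed intracellularly from a pBAD plasmid library in pooled LB shake-flask culture, induced with 0.3% L-arabinose, DNA abundance read by NGS, three biological replicates, DESeq2 with apeglm shrinkage.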

Sequence | shrunken log2 fold change
RRIRWRPPRLPRPRPRPPINPRP | -0.0948
RRIRDRPPRLPRPRPRPHCIPRP | -0.00742
RRIRDRPPRLPRPRPRPHGAPRP | 0.211
RRIRPRPPRLPRPRPRPGHCPRP | 0.0859
RRIRVRPPRLPRPRPRPKPWPRP | 0.376
RRIRKRPPRLPRPRPRPFRVPRP | -0.035
RRIRLRPPRLPRPRPRPLYRPRP | -0.0861
RRIRMRPPRLPRPRPRPTSRPRP | 0.385
RRIRKRPPRLPRPRPRPTHAPRP | 0.505
RRIRARPPRLPRPRPRPDLMPRP | 0.354
RRIRPRPPRLPRPRPRPWDHPRP | -0.106
RRIRTRPPRLPRPRPRPRCSPRP | -0.262
RRIRCRPPRLPRPRPRPHYFPRP | -0.324
RRIRARPPRLPRPRPRPDLVPRP | 0.249
RRIRQRPPRLPRPRPRPAGVPRP | -0.102
RRIRWRPPRLPRPRPRPEYTPRP | 0.166
RRIRERPPRLPRPRPRPMKGPRP | -0.0658
RRIRIRPPRLPRPRPRPGEWPRP | -0.01
RRIRVRPPRLPRPRPRPFNCPRP | -0.0327
RRIRYRPPRLPRPRPRPPGAPRP | 0.397
RRIRERPPRLPRPRPRPIPRPRP | -0.138
RRIRLRPPRLPRPRPRPRHRPRP | -0.0544
RRIRWRPPRLPRPRPRPWCDPRP | -0.0997
RRIRLRPPRLPRPRPRPLFMPRP | -0.546
RRIRQRPPRLPRPRPRPQSNPRP | -0.00933

Sequence | shrunken log2 fold change
RRIRHRPPRLPRPRPRPYGEPRP | -1.23
RRIRSRPPRLPRPRPRPNDMPRP | -0.193
RRIRWRPPRLPRPRPRPPHHPRP | 0.214
RRIRTRPPRLPRPRPRPRNQPRP | -0.139
RRIRRRPPRLPRPRPRPIQLPRP | -0.407
RRIRHRPPRLPRPRPRPNIFPRP | -0.0903
RRIRPRPPRLPRPRPRPQIPPRP | -0.0392
RRIRRRPPRLPRPRPRPMATPRP | 0.609
RRIRWRPPRLPRPRPRPLIEPRP | 0.00804
RRIRIRPPRLPRPRPRPNWGPRP | -0.205
RRIRMRPPRLPRPRPRPRYRPRP | 0.307
RRIRRRPPRLPRPRPRPLYKPRP | -0.248
RRIRWRPPRLPRPRPRPYMRPRP | 0.0516
RRIRRRPPRLPRPRPRPMHLPRP | 0.156
RRIRFRPPRLPRPRPRPEPYPRP | 0.0129
RRIRFRPPRLPRPRPRPVPEPRP | 0.098
RRIRFRPPRLPRPRPRPARKPRP | 0.294
RRIRMRPPRLPRPRPRPEGIPRP | 2.03
RRIRKRPPRLPRPRPRPCDKPRP | 0.000564
RRIRDRPPRLPRPRPRPICKPRP | 0.00282
RRIRRRPPRLPRPRPRPSRPPRP | 0.464
RRIRWRPPRLPRPRPRPRTRPRP | 0.755
RRIRERPPRLPRPRPRPEPEPRP | 0.475
RRIRNRPPRLPRPRPRPRTDPRP | 0.089
RRIRARPPRLPRPRPRPHVLPRP | -0.0367

Sequence | shrunken log2 fold change
RRIRQRPPRLPRPRPRPAHEPRP | 0.185
RRIRSRPPRLPRPRPRPIQFPRP | -0.396
RRIRYRPPRLPRPRPRPYKVPRP | -0.0075
RRIRRRPPRLPRPRPRPTPRPRP | 2.37
RRIRERPPRLPRPRPRPSPMPRP | -0.0654
RRIRNRPPRLPRPRPRPNAGPRP | -0.0954
RRIRNRPPRLPRPRPRPATIPRP | -0.44
RRIRHRPPRLPRPRPRPCCHPRP | -0.707
RRIRYRPPRLPRPRPRPNWPPRP | 0.394
RRIRKRPPRLPRPRPRPIRCPRP | 0.0497
RRIRPRPPRLPRPRPRPHKPPRP | -0.0376
RRIRKRPPRLPRPRPRPAWMPRP | 0.212
RRIRQRPPRLPRPRPRPEPQPRP | 0.00762
RRIRKRPPRLPRPRPRPPDDPRP | 1.99
RRIRGRPPRLPRPRPRPLYQPRP | 0.0508
RRIRHRPPRLPRPRPRPGAWPRP | 0.265
RRIRRRPPRLPRPRPRPMLCPRP | 0.709
RRIRTRPPRLPRPRPRPPMDPRP | 0.15
RRIRERPPRLPRPRPRPEHCPRP | -0.014
RRIRYRPPRLPRPRPRPNNCPRP | -0.0707
RRIRVRPPRLPRPRPRPFQNPRP | 0.00707
RRIRHRPPRLPRPRPRPCYNPRP | -0.427
RRIRVRPPRLPRPRPRPCGKPRP | -0.15
RRIRRRPPRLPRPRPRPPFMPRP | 0.22
RRIRHRPPRLPRPRPRPIYMPRP | -0.0111

Sequence | shrunken log2 fold change
RRIRMRPPRLPRPRPRPHSNPRP | 0.0878
RRIRKRPPRLPRPRPRPTWLPRP | 0.638
RRIRVRPPRLPRPRPRPENKPRP | -0.134
RRIRARPPRLPRPRPRPFYFPRP | 0.00316
RRIRWRPPRLPRPRPRPTTDPRP | 0.449
RRIRARPPRLPRPRPRPAFLPRP | 0.486
RRIRARPPRLPRPRPRPDQWPRP | 0.493
RRIRFRPPRLPRPRPRPKRNPRP | 0.203
RRIRSRPPRLPRPRPRPTFDPRP | 0.0254
RRIRQRPPRLPRPRPRPMDTPRP | -0.031
RRIRYRPPRLPRPRPRPMMAPRP | -0.146
RRIRTRPPRLPRPRPRPCRDPRP | -0.118
RRIRVRPPRLPRPRPRPPGMPRP | 0.172
RRIRLRPPRLPRPRPRPQAQPRP | 0.0698
RRIRKRPPRLPRPRPRPTVLPRP | 0.0143
RRIRWRPPRLPRPRPRPMDNPRP | -0.0894
RRIRQRPPRLPRPRPRPHTTPRP | 0.182
RRIRWRPPRLPRPRPRPFSAPRP | -0.133
RRIRFRPPRLPRPRPRPVKDPRP | -0.254
RRIRFRPPRLPRPRPRPPVLPRP | 0.006
RRIRKRPPRLPRPRPRPINTPRP | -0.0237
RRIRIRPPRLPRPRPRPNGEPRP | -0.0757
RRIRSRPPRLPRPRPRPCHAPRP | -0.0203
RRIRWRPPRLPRPRPRPEKGPRP | 0.0282
RRIRLRPPRLPRPRPRPPTEPRP | 0.296

Sequence | shrunken log2 fold change
RRIRTRPPRLPRPRPRPCAYPRP | -0.164
RRIRYRPPRLPRPRPRPNPRPRP | -0.123
RRIRFRPPRLPRPRPRPWSCPRP | -0.175
RRIRARPPRLPRPRPRPYIDPRP | -0.186
RRIRFRPPRLPRPRPRPRNKPRP | -0.174
RRIRPRPPRLPRPRPRPKFEPRP | 0.319
RRIRDRPPRLPRPRPRPLGFPRP | -0.0377
RRIRMRPPRLPRPRPRPWKNPRP | 0.0328
RRIRPRPPRLPRPRPRPPFRPRP | 0.529
RRIRQRPPRLPRPRPRPALYPRP | 0.172
RRIRSRPPRLPRPRPRPENSPRP | -0.0239
RRIRKRPPRLPRPRPRPFAHPRP | -0.00992
RRIRGRPPRLPRPRPRPRWWPRP | 0.667
RRIRARPPRLPRPRPRPKMIPRP | -0.0208
RRIRFRPPRLPRPRPRPHPMPRP | -0.367
RRIRIRPPRLPRPRPRPGVMPRP | -0.346
RRIRRRPPRLPRPRPRPEWYPRP | -0.128
RRIRPRPPRLPRPRPRPWTWPRP | -0.0128
RRIRPRPPRLPRPRPRPRPAPRP | 0.529
RRIRRRPPRLPRPRPRPILYPRP | 0.143
RRIRNRPPRLPRPRPRPTPRPRP | 0.677
RRIRKRPPRLPRPRPRPMHDPRP | 0.321
RRIRCRPPRLPRPRPRPLSIPRP | -0.917
RRIRLRPPRLPRPRPRPYNCPRP | -0.053
RRIRARPPRLPRPRPRPYKCPRP | -0.138

Source: the supplement of paper PMC9112550, “Optimization of the antimicrobial peptide Bac7 by deep mutational scanning” (BMC Biology, 2022)
